In PMC11536449:
Read-outs that look alike come from different tables or passages of the source.

T1: CmRSM1-GST (Cucumis melo (melon), UniProt A0A1S3CDK8 1-116)
T1 sequence: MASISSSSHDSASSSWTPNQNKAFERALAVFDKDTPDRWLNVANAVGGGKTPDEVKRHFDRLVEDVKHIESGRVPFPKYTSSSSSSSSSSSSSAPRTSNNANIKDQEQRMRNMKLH

B1: P3 probe (CmBr promoter, MRE motif) (dsDNA)
DNA 1: ACTTAGTTTTGAGATCAAATAACTCCTTAGGTTAGTTAATCATTCATTGATTCAATCAA
DNA 2: TTGATTGAATCAATGAATGATTAACTAACCTAAGGAGTTATTTGATCTCAAAACTAAGT
B2: P2 probe (CmBr promoter, MYB and MBS motifs) (dsDNA)
DNA 1: GACAACAAATTTATAAGTAATTGTTCAACCAACTGAAAACGAGAAAAGTAAATATATCT
DNA 2: AGATATATTTACTTTTCTCGTTTTCAGTTGGTTGAACAATTACTTATAAATTTGTTGTC
B3: P1 probe (CmBr promoter, Myb motif) (dsDNA)
DNA 1: ACATTTACTTTTAGATGAAATTGTAACAGTTAGCTAAGTCGTTCACTTCGTTGAAATTA
DNA 2: TAATTTCAACGAAGTGAACGACTTAGCTAACTGTTACAATTTCATCTAAAAGTAAATGT

Columns and labels:
[1] = target: T1, CmRSM1-GST; assay: EMSA
[2] = target: T1, CmRSM1-GST; assay: EMSA; remark: listed apart in the source

Row | Binder | binding result [1] | binding result [2]
1 | B1 | no binding | –
2 | B2 | no binding | –
3 | B3 | – | binds
